The results in this text go back to patent publication US20220411492A1 (QILU PHARMACEUTICAL, published 2022).

What is called EC50 is the concentration at which the effect is half-maximal. A higher EC50 goes with lower potency in that assay.

Assay [1] has as its target T1, human Claudin 18.2 (hCLDN18.2) (human, UniProt P56856-2 1-261). As to the kind of experiment: cell-based or functional assay.
Assay [2] addresses T1, human Claudin 18.2 (hCLDN18.2). As to the kind of experiment: FACS, HEK293-hCLDN18.2 cells. From the text:
(§1) FACS was used to detect the binding of anti-CLDN18.2 chimeric antibodies to HEK293 cells stably transfected expressing hCLDN18.2 (HEK293-hCLDN18.2) and gastric cancer tumor tissue-derived cells naturally expressing hCLDN18.2 (PDX-hCLDN18.2).

Assay [3] shares this target. As to the kind of experiment: cell-based or functional assay. The source holds these as a separate data set.
Assay [4] shares this target. As to the kind of experiment: FACS, PDX-hCLDN18.2 gastric cancer tumor tissue-derived cells.
Description: as §1
For orientation: In flow cytometry, cells or beads pass a laser one at a time.

The target of assay [5] is murine CLDN18.2 (mCLDN18.2) (murine) (UniProt P56857). As to the kind of experiment: FACS, HEK293-mCLDN18.2 cells.

B1: ch-48H1 (antibody, V domains shown)
VH: QVQLQQPGAELVKPGTSVKLSCKASGYIFTNYWTHWMKQRPGQGLEWIGMIHPNSGSSNYNEKFKSKATLTVDRSSSTVYMQLRRLTSEDSAVYYCTRIHYGNSMDYWGQGTSVTVSS
VL: DIVMTQSPSSLTVTAGEKVTMSCKSSQSLFNSGNQKNYLTWYQQKPGQPPKLLIYWASTWESGVPDRFTGSGSGTDFTLTISSVQAEDLAVYYCQNAYSYPFTFGSGTKLEIK
notes: also called chimeric antibody of clone 48H1
Regarding B1, in assay [1], the “CDC EC50” value is 0.17 µg/mL and the “CDC Maximum lysis (%)” value came out at 94.3%. For the same molecule, in assay [2], the EC50 is 2.92 nM and the “Mean maximum fluorescence intensity (Top MFI)” value was 9480 MFI. In assay [3], the “ADCC EC50” value is 0.011 µg/mL and the “ADCC Maximum lysis (%)” value was determined as 44.7%. For the same molecule, in assay [4], the EC50 was 5.59 nM and the “Mean maximum fluorescence intensity (Top MFI)” value turned out to be 13600 MFI. In assay [5], this molecule showed an EC50 of 1.76 nM and a Mean maximum fluorescence intensity (Top MFI) of 14800 MFI.

B2: ch-32G8 (antibody, V domains shown)
VH: EVHLQQSGPVLVKPGASVKMSCKASGYTFTDYHMNWVKQSHGKSLEWIGVINPYNGGIRYNQKFKGKATLTVDKSSSTAYMELNSLTSEDSAVYYCATIYYGNSFAYWGQGTLVTVSA
VL: DIVMTQSPSSLTVTAGEKVTMSCKSSQSLLNSGNQKNYLTWYQQKPGQPPKLLIYWASTRESGVPDRFTGSGSGTDFTLTISSVQAEDLAVYYCQNNYIYPFTFGGGTKLEIR
notes: also called chimeric antibody of clone 32G8
Regarding B2, in assay [1], the “CDC EC50” value was 0.108 µg/mL and the “CDC Maximum lysis (%)” value was determined as 93.8%. For the same molecule, in assay [2], it took 2.66 nM to reach a half-maximal effect (EC50) and the “Mean maximum fluorescence intensity (Top MFI)” value was 8640 MFI. Moreover, in assay [3], the “ADCC EC50” value amounted to 0.019 µg/mL and the “ADCC Maximum lysis (%)” value stood at 46.8%. Also, in assay [4], the EC50 came out at 5.39 nM and the “Mean maximum fluorescence intensity (Top MFI)” value worked out at 14800 MFI. In assay [5], this molecule gave an EC50 of 0.84 nM and a Mean maximum fluorescence intensity (Top MFI) of 6870 MFI.

B3: ch-40G7 (antibody, V domains shown)
VH: QVQLQQPGTELVKPGASVKLSCKASGYTFTNYWMHWVKQRPGHGLEWIGMIHPNSYSTNYNEKFRSKATLTVDKSSSTAYMQLSSLTSEDSAVYYCTRIYYGNAMDYWGQGTSVTVSS
VL: DIVMTQSPSSLTVTAGERVTMSCKSSQSLFNSGNQKNYLTWYHQKPGQPPKLLIYWAFTRESGVPDRFTGSGSGTDFTLTIRSVQAEDLAVYYCQNDYSYPFTFGSGTKLEIK
notes: also called chimeric antibody of clone 40G7
Take B3: in assay [1], the “CDC EC50” value was 0.38 µg/mL and the “CDC Maximum lysis (%)” value came to 89.1%. Moreover, in assay [2], the half-maximal effective concentration (EC50) was 2.31 nM and the “Mean maximum fluorescence intensity (Top MFI)” value is 7470 MFI. For the same molecule, in assay [3], the “ADCC EC50” value amounted to 0.018 µg/mL and the “ADCC Maximum lysis (%)” value was determined as 32.7%. In addition, in assay [4], the EC50 came out at 7.69 nM and the “Mean maximum fluorescence intensity (Top MFI)” value came out at 10100 MFI. In assay [5], the EC50 came to 1.11 nM and the Mean maximum fluorescence intensity (Top MFI) worked out at 10000 MFI.

B4: ch-37G8 (antibody, V domains shown)
VH: EVQLQQSGPVLVKPGASVKMSCKASGYTFSDYHMNWVKQSHGKSLEWVGLINPYNGGIRFNQKFKGKATLTVDKSSSTAYMELNSLTSEDSAVYYCATIYYGNSFAYWGQGTLVTVSA
VL: DIVMTQSPSSLTVTAGEKVTLTCKSGQSLLNSGNQKNYLTWYQQKPGQPPKLLIYWASTRESGVPDRFTGSGSGTDFTLTISGVQAEDLAVYYCQNDYFYPYTFGGGTKLEIK
notes: also called chimeric antibody of clone 37G8
Regarding B4, in assay [1], the “CDC EC50” value is 0.16 µg/mL and the “CDC Maximum lysis (%)” value worked out at 92.9%. In assay [2], the EC50 was determined as 5.05 nM and the “Mean maximum fluorescence intensity (Top MFI)” value worked out at 10400 MFI. Also, in assay [3], the “ADCC EC50” value came out at 0.022 µg/mL and the “ADCC Maximum lysis (%)” value stood at 31.7%. Further, in assay [4], the response was half-maximal at 7 nM (EC50) and the “Mean maximum fluorescence intensity (Top MFI)” value stood at 14400 MFI. In assay [5], the EC50 stood at 1.71 nM and the Mean maximum fluorescence intensity (Top MFI) came out at 8930 MFI.

B5: ch-39C8 (antibody, V domains shown)
VH: QVQLQQSGAGLVKPGASVKISCKASGYAFSSYWMIWVKQRPGKGLEWIGQIYPGDGDTNYNGKFKGKATLTADKSSSTAFMQLSSLTSEDSAVYFCTRIYYGNAFAYWGQGTLVTVSA
VL: DIVMTQSPSSLTVTAGEKVTMSCKSSQSLLNSGNQKNYLTWYQQKPGQPPKLLIYWASTRESGVPDRFTGSGSGTDFTLTISSVQAEDLAVYYCQNDYSYPFTFGSGTKLEIK
notes: also called chimeric antibody of clone 39C8
In the case of B5, in assay [1], the “CDC EC50” value worked out at 0.177 µg/mL and the “CDC Maximum lysis (%)” value is 94.8%. Further, in assay [2], the EC50 came to 2.7 nM and the “Mean maximum fluorescence intensity (Top MFI)” value is 7820 MFI. In assay [3], the “ADCC EC50” value turned out to be 0.022 µg/mL and the “ADCC Maximum lysis (%)” value was found to be 34.5%. In assay [4], the EC50 is 20.1 nM and the “Mean maximum fluorescence intensity (Top MFI)” value is 17500 MFI. In assay [5], this molecule came in with an EC50 of 1.63 nM and a Mean maximum fluorescence intensity (Top MFI) of 10600 MFI.

B6: ch-76D11 (antibody, V domains shown)
VH: QVQLQQSGAELMKPGASVKLSCKASGYTFTGYWIEWIKQRPGHGLEWIGEILPGSGSIKYNEKFKDKATFTADTSSNTAYMQLSSLTTEDSAIYYCARKGLRGNSFDYWGQGTTLTVSS
VL: DIVMTQSPSSLTVTAGEKVTMSCKSSQSLLNSGNQKNYLTWYQQKPGQPPKRLIYWASTRESGVPDRFTGSGSGTDFTLTISSVQAEDLAVYYCQNDYYYPFTFGSGTKLEIK
notes: also called chimeric antibody of clone 76D11
For B6, in assay [1], the “CDC EC50” value is 0.108 µg/mL and the “CDC Maximum lysis (%)” value amounted to 95.4%. Further, in assay [2], it took 2.46 nM to reach a half-maximal effect (EC50) and the “Mean maximum fluorescence intensity (Top MFI)” value turned out to be 8720 MFI. In addition, in assay [3], the “ADCC EC50” value worked out at 0.021 µg/mL and the “ADCC Maximum lysis (%)” value is 45.6%. Moreover, in assay [4], a half-maximal response (EC50) required 12.3 nM and the “Mean maximum fluorescence intensity (Top MFI)” value was 16800 MFI. In assay [5], this molecule returned an EC50 of 0.702 nM and a Mean maximum fluorescence intensity (Top MFI) of 6340 MFI.

B7: ch-42D2 (antibody, V domains shown)
VH: EVQLQQSGPVLVKPGASVKMSCKASGYTFTDYQMNWVKQSHGKSLEWIGFINPYNGGIRYNQKFKGKATLTVDKSSSTAYMELNSLTSEDSAVYYCATIYFGNSFANWGQGTLVTVSA
VL: DIVMTQSPSSLTVTAGEKVTMSCKPSQSLLNSGNQKNYLTWYQQKPGQPPRLLIYWASTRESGVPDRFTGSGSGTDFTLTISSVQAEDLAVYYCQNDYIYPYTFGGGTNLEIK
notes: also called chimeric antibody of clone 42D2
B7: in assay [1], the “CDC EC50” value was determined as 0.13 µg/mL and the “CDC Maximum lysis (%)” value stood at 94.5%. In assay [2], the EC50 stood at 2.42 nM and the “Mean maximum fluorescence intensity (Top MFI)” value was 10400 MFI. For the same molecule, in assay [3], the “ADCC EC50” value came to 0.02 µg/mL and the “ADCC Maximum lysis (%)” value stood at 39.1%. In assay [4], the midpoint of the response, the EC50, lay at 7.42 nM and the “Mean maximum fluorescence intensity (Top MFI)” value is 15700 MFI. Also, in assay [5], the EC50 stood at 0.764 nM and the Mean maximum fluorescence intensity (Top MFI) is 7400 MFI.

B8: ch-43F5 (antibody, V domains shown)
VH: QVQLQQPGAELVKPGTSVKLSCKASGYTFTSYWTHWVKQRPGQGLEWIGMIHPNSGSSNYNEKFKSKATLTVDKSSSTAYMQLRRLTSEDSAVYYCTRIHYGNAMDYWGQGTSVTVSS
VL: DIVMTQSPSSLTVTAGEKVTMTCKSSQSLLNSGNQKNYLTWYQQKPGQPPKLLIYWASTRESGVPDRFTGSGSGTDFTLTISSVQAEDLAIYYCQNDYSFPFTFGSGTKLEIK
notes: also called chimeric antibody of clone 43F5
Turning to B8, in assay [1], the “CDC EC50” value worked out at 0.206 µg/mL and the “CDC Maximum lysis (%)” value was 89.8%. In addition, in assay [2], the EC50 amounted to 1.51 nM and the “Mean maximum fluorescence intensity (Top MFI)” value was found to be 5590 MFI. In assay [3], the “ADCC EC50” value is 0.064 µg/mL and the “ADCC Maximum lysis (%)” value is 48.5%. Further, in assay [4], the EC50 came to 5.35 nM and the “Mean maximum fluorescence intensity (Top MFI)” value is 7620 MFI. In assay [5], the 50% effective concentration (EC50) was determined as 1.13 nM and the Mean maximum fluorescence intensity (Top MFI) came out at 6090 MFI.
